From the supplement of paper PMC9170038

System: K4 kissing-loop RNA reporter
Assay: apparent KD of K4 kissing-loop reporter; higher = weaker reporter binding
Conditions: Eterna round: R107
Procedure: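 RNA-MaP round R107: designed RNA switches with theophylline, tryptophan, arginine or FMN aptamers are transcribed on-chip within common flanks. They are titrated with a labelled K4 kissing-loop RNA reporter in RNA-MaP buffer (100 mM Tris pH 7.5, 80 mM KCl, 4 mM MgCl2), without ligand or with the indicated ligand. Median apparent KD per design.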

[1] = input ligand: theophylline 20 uM
[2] = input ligand: tryptophan 2.4 mM
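Note: bound reporter read as fluorescence of individual clusters on recovered sequencing chips by microscopy, with normalized cluster intensities fitted with a binding model.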

Row | Sequence | apparent KD of K4 kissing-loop reporter (input ligand: FMN 200 uM) [nM] | apparent KD of K4 kissing-loop reporter (input ligand: arginine 13.2 mM) [nM] | apparent KD of K4 kissing-loop reporter (input ligand: none) [nM] | apparent KD of K4 kissing-loop reporter [1] [nM] | apparent KD of K4 kissing-loop reporter [2] [nM]
1 | GGUGACGACCAGAGGUGAUGUAUAGUAUCGCGAGGACCGGUACGGCCGCCACUCGUGAAGAGAAAGGAGUGAUGUUCCGUAAUGG [Kazoo C9] | 241 | 217 | 289 | 289 | 108
2 | GGUGGCGUUGUUGACAGCUCACCACGAGCCAAGGAUAUAGUUUCUUCUAGAAGGUGGAAUGACAAGUGAUGUUUGUACGACUGCU [theeternabot_exclusion_KL_FMN_A_28] | 254 | 233 | 254 | 294 | 185
3 | GGUGGCUUACAAAGCUCAGUGAUGUUGAGCCGAGGACCGGUACGGCCGCCACUCGUUUGCCAUUCACUACAGUUACAAGCACUAG [theeternabot_exclusion_KL_Trp_A_2] | 269 | 217 | 279 | 282 | 292
4 | GGUGUUGUUUGUGCUGUUUUCCUCGUUCCUCGAGGACCGGUACGGCCGCCACUCGAGUGAUGUUUGGGUAGCGAUCCCUGUUAGU [Bdazzled - #8 Exc. Tryptophan A] | 624 | 504 | 675 | 649 | 593
5 | GGUGUUGUUUGUGCUGUUUUCUUCGUUUCUCGAGGACCGGUACGGCCGCCACUCGAGUGAUGUUUGGGUAGCGAUCUUUGUUAGU [Bdazzled - #4- Exc. Tryptophan A] | 430 | 256 | 345 | 339 | 385
6 | GGUUAAAGCACCCGGAGUGAUGUUCCGGAUACCAGCAAACCAACUUGCCCUUGGCAGCCGUAUAGCGUCCGGUGGGCCGAGCAUA [Raarce] | 94.9 | 94.3 | 98.4 | 97.6 | 92.7
7 | GUAGACAGACUGCAAGCCUAGUCUACAGACUAGGAUAUCAGGAAACUGAGAAGGAGUCUAGUUGCAGUGAUGUUGCAAGAAUAAU [KL-SSFMN-A24] | 120 | 135 | 123 | 140 | 99.8
8 | GUAUAUUAGGGAGACCUAAUAUAAAUAGAAGGAGCGUAGGAAACUACAGGUAGGUCGCUAAAUAUACAGUGAUGUUGUAUAAUGG [arg a same] | 183 | 147 | 172 | 195 | 141
9 | GUAUCGCUAGGAGGAUAUUUCGUUUUUCAUAGCAAUGGCUGUGCGGAGUGAUGUUCCGAUUUACCGGAAGAAGGCCUAGUGAUAC [FMN B 27] | 107 | 165 | 180 | 158 | 161
10 | GUCAUGCGUUCAGGAUAUGGACCAAUUUAUAUUGCUUAUGCUGUGCCCUGUAUGGCAGUGAUGUUGCCAGAAGGGAGGGCAUGCA [Erbionvean] | 116 | 88 | 96.6 | 111 | 102
11 | GUCCACACUGCAGGAUAUGGAGGUAUAGCGAGGGAGUGUGGAAGCACACCUCUGGCAGUGAUGUUGCCAGAAGGGCGGUGCGGCG [Masodionra] | 118 | 103 | 119 | 90.3 | 93.2
12 | GUCCAUGUCCUCAUUCGUGCACUGGACACCAAGGAUAUGUUUAUGGACAGAAGGUGGUUGGGUCAGUGAUGUUGAUAUAAUUAGU [theeternabot_exclusion_KL_FMN_A_24] | 208 | 276 | 278 | 406 | 194
13 | GUCGGCCGCGCGCAAGCGCGGCCGGCCGAUACCAGCGCGCCGGUGCGCCCUUGGCAGCGGCACCGAGUGAUGUUCGGUCAGACGA [#2 Same State - Theophylline A Attempt #6 (HarryS)] | 407 | 161 | 308 | 113 | 234
14 | GUCUGCGUCUCGGCCGCCACUCACUAGUGAUGUUAGUAAGGAGCGACUAGAGAAGUCCAGUUGAUGAGGACCGGGAGACGCAAAA [Exclusion Tryptophan B GF4] | 114 | 84.3 | 95.7 | 85.8 | 169
15 | GUGAAGGAGCUGCAGUGAUGUUGCAGAGACUAGGAUAUCAGGAAACUGAGAAGGAGUCAACUCCUUCACCUAGACAACAUCACUA [[F]''-[K1]-[K2]-[F1]-[F2]-[F2]'-[F1]'-[K]'_Design2] | 148 | 151 | 128 | 269 | 187
16 | GUGCAGUGAUGUUGCACGAGGAAAGACGAUACCAGCCGUAAAUAAGGCCCUUGGCAGCGUGGGCUAGCACAAAAUAUGCUAGUCU [Laleingeat] | 97.9 | 99.6 | 107 | 68.4 | 117
17 | GUGCGCGCGGCGGCCGCCACUCGCAUGAGAGUGAUGUUCUCACCGUGACCGCAAGGUCGCGGUGUGAGGACCGGGCCGGGCUGCG [#2 Same State - Tryptophan B Attempt #25 (HarryS)] | 74.3 | 93.5 | 217 | 464 | 297
18 | GUGCGCGCGGCGGCCGCCACUCGCAUGAGAGUGAUGUUCUCGGGACUGACGGAAGUCAGUCAUGGGAGGACCGGGCCGGGCUGCG [#2 Same State - Tryptophan B Attempt #13 (HarryS)] | 360 | 958 | 208 | 1140 | 521
19 | GUGCGCGGUGCGGCCGCCACUCGCAUGAGAGUGAUGUUCUCGGGACGGACGGAAGUCCGUCAUGUGAGGACCGGGCAUGGCUGCG [#2 Same State - Tryptophan B Attempt #10 (HarryS)] | 894 | 344 | 416 | 497 | 453
20 | GUGCGUAAGUGAUGUUUACGUCAGCUCCGCAAGGAUAUCCUGAUUAGGAGAAGGUGCGGGAACUAAAGACGCUCGUUCUAGCAGG [theeternabot_exclusion_KL_FMN_A_33] | 146 | 182 | 205 | 168 | 162
21 | GUGGUACAGGCGGCCGCCACUAGUGAUGUUAGUGUUAGAAGAUAUAGUAUAUAUCGGCAUUUGUUUAGGACCGGGCCUGGUGGAG [aqzacmullin] | 209 | 166 | 184 | 189 | 182

Row | Sequence | apparent KD of K4 kissing-loop reporter (input ligand: FMN 200 uM) [nM] | apparent KD of K4 kissing-loop reporter (input ligand: arginine 13.2 mM) [nM] | apparent KD of K4 kissing-loop reporter (input ligand: none) [nM] | apparent KD of K4 kissing-loop reporter [1] [nM] | apparent KD of K4 kissing-loop reporter [2] [nM]
22 | GUUACGCAUGGAAGGAGCGCUCUCAUAUUUAAUAACACAGUGAUGUUGUGAAUUUAUAUAAAGCAGGUAGGUCGCCAUGUGUAAC [Ex Arginine B K4 6] | 336 | 281 | 326 | 276 | 258
23 | GUUACGCAUGGAAGGAGCGCUCUCCGGCUUAUUAACACAGUGAUGUUGUGAUUUUGCCGAAAGCAGGUAGGUCGCCAUGUGUAAC [Ex Arginine B K4 11] | 487 | 363 | 451 | 447 | 451
24 | GUUCGAUUCUGAGUGAUGUUGAGAAUUGAGAAGGAUAUCCAGAAAAGGAGAAGGUCUACGUCAUGCGCCUCGAUUUGCUAGCUGC [theeternabot_exclusion_KL_FMN_A_50] | 835 | 567 | 630 | 515 | 609
25 | GUUGUCUACCAGAGGUGAUGUAUAGUAUCGCGAGGACCGGUACGGCCGCCACUCGUGAAGAGAAAGGAGUGAUGUUCCGUAAUGG [C10] | 255 | 271 | 293 | 301 | 118
26 | UAACCGCAGAAAGAUACCAGUGAGUGAUGUUCCUCGAUCCUGUGGUUCAUUCUCUUUACCCACCCUUGGCAGCUUCAAAUGUGAC [theeternabot_exclusion_KL_Theo_B_4] | 831 | 537 | 850 | 573 | 602
27 | UAACUCUUGCAGUGAUGUUGCAAGUAAGCUCAGGAUAUCAGGAAACUGAGAAGGGAGCAUCCUGAGCUUCUGCAAGAGCUCAGAA [KL-SSFMN-A4] | 254 | 152 | 184 | 217 | 189
28 | UAACUGCAGUGAUGUUGCAGAUGUCCUGACUAGGAUAUCAGGAAACUGAGAAGGAGUCCCUUCUAAACAUCACAGAAGGAGGACA [[K1]-[K2]-[F1]'-[F1]-[F2]-[F2]'-[K]'-[F]''_Design2] | 491 | 415 | 434 | 508 | 442
29 | UAACUGCAGUGAUGUUGCAGAUGUCCUGACUAGGAUAUCAGGAAACUGAGAAGGAGUGCCUUCUAAACAUCACAGAAGGUGGACA [KL-SSFMN-A28] | 360 | 440 | 415 | 286 | 458
30 | UAAGGGUUAUGUCCUCGGUGCGAAGAGCUCCGAGGACCGGUACGGCCGCCACUCGGAAGUUCUGAGUGAGGGAGUGAUGUUCCCU [Skye_Ex_TA] | 312 | 291 | 359 | 315 | 306
31 | UAAUAAAUUCCAGCUGUAUCACUCUUCGAAGGAGCGGACGAAAGUCCAGGUAGGUCGCGAAGAGUGAUGUUCUUUGCGGCGCUGG [Omei KL Arginine A Exc A v6] | 82.3 | 68.4 | 94.8 | 76.6 | 57.1
32 | UAAUAUCAACUUGUAGGAGUGAUGUUCCGCCGAGGACCGGUACGGCCGCCACUCGACAAAAUCUCAGUGUGGUACCUAGGAAUUU [theeternabot_exclusion_KL_Trp_A_24] | 406 | 313 | 374 | 352 | 431
33 | UAAUAUCCGUCGGCCGCCACUCACCAGUGAUGUUGGAGGAGUGAUGUUCCACGAGUGAUGUUCGAGAGGACCGGGACGGACGAUG [6th] | 134 | 114 | 126 | 108 | 103
34 | UAAUCACUCGAACUGCAAGUACGAGUGGAACGAGGACCGGUACGGCCGCCACUCGAUAACUUGCAGUGAUGUUGCAAGUAAGAAU [(T)''-(K)'-(T)'-(T1)-(T2)-(K1)-(K2)_Design7] | 60.5 | 52.4 | 57.2 | 52.8 | 121
35 | UAAUUUAUGUCUUUAAUUUUAUAAUCAGAUACCAGUGAUUUAUGACACCCUUGGCAGCUGUAUUGAGUGAUGUUCUUAUACUUAA [JR_Nu_ExcTheophyA_Sub022] | 140 | 167 | 175 | 236 | 99.3
36 | UACAGGGAUAGUGAUGUUAUCCCAUGUGAUACCAGUGCCAUCCAACACCCUUGGCAGCAUACGGGCAGUGAUGUUGUUCUUGGUU [Exclusion Theophylline A GF 13] | 96.1 | 85.4 | 93.7 | 87.1 | 88.5
37 | UACAGGGCGAGUGAUGUUUGCUCAUGUGAUACCAGUGCCAUCCAACACCCUUGGCAGCAUGCGGGCAGUGAUGUUGUCCUUGGUU [Exclusion Theophylline A GF11] | 294 | 223 | 280 | 278 | 249
38 | UACUUAUAUAUCAACUUAAAUUAUUCAGAAGGAGCGUGAUCAUUCACAGGUAGGUCGCUGAACUAGUGAUGUUAGUUUUAAUUUU [JR_Nu_ExcArginiA_Sub023] | 67.9 | 146 | 81.3 | 126 | 61.5
39 | UAGCUCUACAGAAGGAGCGACGUUCUUAGACAGUGAUGUUGUCUAUAGUGAAUAUAGGAACGUCAGGUAGGUCGCUGUAGAGCUA [Arg B SS t11] | 213 | 160 | 200 | 189 | 164
40 | UAGGAGUGAUGUUCCAUGUCUUGAGCCGAAGGAGCGCCUUUCUAGGCAGGUAGGUCGCGGCAGAAGGUACCAGUGAUGUUGGAAA [Same State Arginine A GF8] | 249 | 385 | 372 | 283 | 279
41 | UAGGUUUAAUCGGCCGCCACUAUCAGAGCGCCAGUGAUGUUGGAGUAACGAUCGUGGCGAGUUAAUAGGACCGGGAUUCAACACA [Velazaer] | 159 | 141 | 141 | 152 | 156
42 | UAGUCCGAGUGAUGGUCAUCACGUGGCGGGCGAGGACCGGUACGGCCGCCACUCGACUUUGCAGUGAUGUUGCAAACCGGACAAU [Exclusion - Tryptophan A (Freestyle 21)] | 229 | 185 | 249 | 224 | 193
